This passage reports Km results from PMC4882453, “Monoacylglycerol Lipases Act as Evolutionarily Conserved Regulators of Non-oxidative Ethanol Metabolism” (The Journal of Biological Chemistry, 2016).

Broadly, the Km is the concentration of substrate that gives half-maximal velocity.

Substrate in this series: CCCCCCCCCCCCCCCC(=O)OCC
Nature of the series: release of fatty acid, substrate saturation, nonlinear regression. The class given is biochemical, Saccharomyces cerevisiae. The following applies: CHAPS-emulsified substrate, Bistris propane, pH 7, 1 mM EDTA, 37 °C, 30 min.

B1: His6-tagged Yju3p (Saccharomyces cerevisiae S288C) (protein)
chain: MAPYPYKVQTTVPELQYENFDGAKFGYMFWPVQNGTNEVRGRVLLIHGFGEYTKIQFRLMDHLSLNGYESFTFDQRGAGVTSPGRSKGVTDEYHVFNDLEHFVEKNLSECKAKGIPLFMWGHSMGGGICLNYACQGKHKNEISGYIGSGPLIILHPHTMYNKPTQIIAPLLAKFLPRVRIDTGLDLKGITSDKAYRAFLGSDPMSVPLYGSFRQIHDFMQRGAKLYKNENNYIQKNFAKDKPVIIMHGQDDTINDPKGSEKFIQDCPSADKELKLYPGARHSIFSLETDKVFNTVFNDMKQWLDKHTTTEAKP
notes: expression construct described previously (YJU3 for the GFP fusions was cloned from BY4742 genomic DNA)
Consider B1, for which the Km was determined as 780 µM.
